The values below come from publication PMC7253899 (Saudi Journal of Biological Sciences, 2020).

The data set concerns the molecule itself. The data set is described as follows: SEC-MALS.

B1: TRAIP Leucine zipper domain (198-280 a.a) (domain or fragment, human, UniProt Q9BWF2 198-280, looked up)
chain: AVYCVSLKKEYENLKEARKASGEVADKLRKDLFSSRSKLQTVYSELDQAKLELKSAQKDLQSADKEIMSLKKKLTMLQETLNL
On to B1, for which the “stoichiometry N” value is 3.
